This is an account of results in paper PMC6218115 (2018).

In assay [1] the target is alpha-1-acid glycoprotein (AGP) (Homo sapiens, UniProt P02763). The experiment in a line: TRANSIL XL AGP bead binding with liquid scintillation counting.
Assay [2] concerns the target human serum albumin (HSA) (Homo sapiens, UniProt P02768). The assay is described as follows: TRANSIL XL HSA bead binding with liquid scintillation counting.

Non-standard residues stand in square brackets, D forms with d. No end group written: not given here.

alpha-1-acid glycoprotein (AGP), sequence (P02763 19-201): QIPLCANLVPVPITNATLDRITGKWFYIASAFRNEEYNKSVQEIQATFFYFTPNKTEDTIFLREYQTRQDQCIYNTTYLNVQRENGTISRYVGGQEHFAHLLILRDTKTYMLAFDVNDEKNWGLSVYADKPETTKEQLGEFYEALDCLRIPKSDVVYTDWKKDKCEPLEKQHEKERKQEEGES

On to [dR][dK][dR][dI][dR][dL][dV][dT][dK][dK][dK][dR]-NH2 (also: 3H-labelled tracer) [ANK6], for which the Kd in assay [1] was determined as 290 nM. That is a sub-micromolar value.

cyclo([dR][dK][dR][dI][dR][dL][dV][dT][dK][dK][dK][dR][dR]) (also: 3H-labelled tracer) [cANK6r]: the results for the Kd in assay [1] and in assay [2] were 280 nM and 599000 nM, respectively. For [dR][dK][dR][dI][dR][dL][dV][dT][dK][dK][dK][dR][dR][dK][dR][dI][dR][dL][dV][dT][dK][dK][dK][dR]-NH2 (also: 3H-labelled tracer) [tANK6], in that order: 60 nM and 138000 nM.

As usually defined, the Kd is the free concentration of one partner at which half of the binding sites on the other are occupied at equilibrium, for simple one-to-one binding. A high value points to lower affinity.
